Laboratory results published in publication doi:10.1101/2020.04.14.040436, “Molecular basis for the recognition of steroidogenic acute regulatory protein by the 14-3-3 protein family” (bioRxiv, 2020).

How the values were obtained:
[1] = target: the molecule itself; assay: crystal structure; phosphorylated chimeras of 14-3-3σΔC with the STARD1 peptide joined by a GSGSL linker; sitting-drop vapor diffusion; data at 100 K
[2] = target: T1, STARD1_(46-285)-S56A/L59P phosphorylated at Ser57 and Ser195 (human, UniProt P49675 46-285, S56A | L59P, phosphoserine at 57; phosphoserine at 195); assay: SPR
T1 sequence: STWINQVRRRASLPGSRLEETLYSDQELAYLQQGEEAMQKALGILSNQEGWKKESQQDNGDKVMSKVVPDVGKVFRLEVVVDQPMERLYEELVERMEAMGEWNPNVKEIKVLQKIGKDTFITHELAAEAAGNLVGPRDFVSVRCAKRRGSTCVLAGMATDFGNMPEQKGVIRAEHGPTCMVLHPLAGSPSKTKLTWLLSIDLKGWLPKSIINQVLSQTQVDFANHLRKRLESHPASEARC

[3] = target: T1, STARD1_(46-285)-S56A/L59P …; assay: SPR; remark: listed apart in the source
[4] = target: T2, wild-type full-length human 14-3-3γ (human, UniProt P61981 1-247); assay: time-resolved fluorescence anisotropy; 1 µM 22NC, 10 µM pSTARD1, 100 µM 14-3-3γ; 20 mM Tris-HCl pH 7.5, 150 mM NaCl, 5 mM MgCl2; 25 °C; correlation time of the 22NC bound to STARD1; conditions: both partners purified
T2 construct: 14-3-3γ, human, wild type, full length; Called untagged in the preparation of the heterodimer; also called untagged 14-3-3γ
T2 sequence (looked up): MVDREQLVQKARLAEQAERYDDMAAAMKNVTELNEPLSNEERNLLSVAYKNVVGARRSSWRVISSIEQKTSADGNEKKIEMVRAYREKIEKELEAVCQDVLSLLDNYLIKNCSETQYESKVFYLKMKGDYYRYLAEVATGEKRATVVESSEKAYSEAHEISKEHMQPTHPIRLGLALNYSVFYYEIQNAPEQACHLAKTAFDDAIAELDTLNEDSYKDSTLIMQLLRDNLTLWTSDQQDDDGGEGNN

B1: chimeric 14-3-3σΔC protein with the STARD1 Ser195 phosphopeptide (other, human)
chain: MERASLIQKAKLAEQAERYEDMAAFMKGAVEKGEELSCEERNLLSVAYKNVVGGQRAAWRVLSSIEQKSNEEGSAAAGPEVREYREKVETELQGVCDTVLGLLDSHLIKEAGDAESRVFYLKMKGDYYRYLAEVATGDDKKRIIDSARSAYQEAMDISKKEMPPTNPIRLGLALNFSVFHYEIANSPEEAISLAKTTFDEAMADLHTLSEDSYKDSTLIMQLLRDNLTLWTGSGSLRRGSTCVLA
modifications: phosphoserine at Ser195 of the STARD1 peptide
notes: 14-3-3σ, human, without the C-terminal tail (14-3-3σΔC core); linker; steroidogenic acute regulatory protein STARD1 (StAR), human, stretch around Ser195; also called protein with fused Ser195 peptide; not shown: His, N-terminal, cleaved
[1]
  binding result: binds

B2: 14-3-3ε/γ heterodimer (His6-tagged 14-3-3ε with untagged 14-3-3γ) (complex)
chain 1: MDDREDLVYQAKLAEQAERYDEMVESMKKVAGMDVELTVEERNLLSVAYKNVIGARRASWRIISSIEQKEENKGGEDKLKMIREYRQMVETELKLICCDILDVLDKHLIPAANTGESKVFYYKMKGDYHRYLAEFATGNDRKEAAENSLVAYKAASDIAMTELPPTHPIRLGLALNFSVFYYEILNSPDRACRLAKAAFDDAIAELDTLSEESYKDSTLIMQLLRDNLTLWTS
chain 2: MVDREQLVQKARLAEQAERYDDMAAAMKNVTELNEPLSNEERNLLSVAYKNVVGARRSSWRVISSIEQKTSADGNEKKIEMVRAYREKIEKELEAVCQDVLSLLDNYLIKNCSETQYESKVFYLKMKGDYYRYLAEVATGEKRATVVESSEKAYSEAHEISKEHMQPTHPIRLGLALNYSVFYYEIQNAPEQACHLAKTAFDDAIAELDTLNEDSYKDSTLIMQLLRDNLTLWTSDQQDDDGGEGNN
[2]
  koff: 0.0057 s⁻¹
[3]
  Ka: 67000 M⁻¹

B3: His6-tagged 14-3-3ε (natural protein)
chain: MDDREDLVYQAKLAEQAERYDEMVESMKKVAGMDVELTVEERNLLSVAYKNVIGARRASWRIISSIEQKEENKGGEDKLKMIREYRQMVETELKLICCDILDVLDKHLIPAANTGESKVFYYKMKGDYHRYLAEFATGNDRKEAAENSLVAYKAASDIAMTELPPTHPIRLGLALNFSVFYYEILNSPDRACRLAKAAFDDAIAELDTLSEESYKDSTLIMQLLRDNLTLWTS
[2]
  koff: 0.0058 s⁻¹
[3]
  Ka: 77000 M⁻¹

B4: STARD1_(46-285)-S56A/L59P phosphorylated at Ser57 and Ser195 (domain or fragment, human, UniProt P49675 46-285, looked up)
chain: STWINQVRRRASLPGSRLEETLYSDQELAYLQQGEEAMQKALGILSNQEGWKKESQQDNGDKVMSKVVPDVGKVFRLEVVVDQPMERLYEELVERMEAMGEWNPNVKEIKVLQKIGKDTFITHELAAEAAGNLVGPRDFVSVRCAKRRGSTCVLAGMATDFGNMPEQKGVIRAEHGPTCMVLHPLAGSPSKTKLTWLLSIDLKGWLPKSIINQVLSQTQVDFANHLRKRLESHPASEARC
modifications: phosphoserine at 57; phosphoserine at 195
notes: steroidogenic acute regulatory protein STARD1 (StAR), human, residues 46-285 of the 285-residue pre-protein; also called pSTARD1; pSTARD1_(46-285)-S56A/L59P
[4]
  binding result: binds
